The values that follow come from the supplement of paper PMC10126150.

± gives the standard deviation of the averaged measurements.
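Also: ATP exposure 15 min at 22 °C before imaging.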

The test system of the series is ATP. In words: switch fluorescence ratio, 500 uM ATP over buffer (Cy3 cluster intensity, sum of 5 cycles each) (fold (ratio)); higher = stronger signal-on switching upon ATP binding; sequences stand for … in TCGTCGGCAGCGTCAGATGTGTATAAGAGACAGTTTTTTTTTTTTTTTTTTTTTTTTT…TC. The following applies: aptamer strand: ATP DNA aptamer (quencher-CACCTGGGGGAGTATTGCGGAGGAAGG + anchor), 100 nM annealed; ATP concentration: 500 uM. In short, it runs like this: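 Switching-strand clusters labelled with Cy3 on a modified Illumina MiSeq flow-cell were annealed to 100 nM quencher-labelled ATP aptamer, imaged in selection buffer, and re-imaged after 15 min with 500 uM ATP at 22 °C. This was done over five cycles with NaOH stripping and re-annealing in between. The fluorescence ratio is summed target-cycle over summed buffer-cycle Cy3 intensity per cluster, averaged per switch-domain sequence, excluding clusters outside 100-1000 RFU.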
With CACTTTCGT, the switch fluorescence ratio worked out at 0.959 ± 0.029.
On to GTCTCTGGGG, for which the switch fluorescence ratio turned out to be 1.08 ± 0.083.
AGGACTGGGG: the switch fluorescence ratio is 1.01 ± 0.037.
The figure for GTTTAGGGTA is 1.01 ± 0.051.
Take TTGCTTAAGG: the switch fluorescence ratio came out at 0.997 ± 0.026.
Regarding CCGCTGGGGG, the switch fluorescence ratio was determined as 1.177 ± 0.0036.
The same measure for TTTGGGTGTT: 1.02 ± 0.046; for TTTCAGAAAG: 0.986 ± 0.011.
For GAAATCCGAA, the switch fluorescence ratio is 1.08 ± 0.058.
In the case of CGTTGAATAA, the switch fluorescence ratio worked out at 1.017 ± 0.0089.
Take GGTGGGGTCG: the switch fluorescence ratio worked out at 0.991 ± 0.046.
On to AGAGGCTGAA, for which the switch fluorescence ratio was 1 ± 0.012.
Regarding GTAATTATGT, the switch fluorescence ratio stood at 1.02 ± 0.016.
Turning to TTTTGAAACG, the switch fluorescence ratio is 0.995 ± 0.025.
The same measure for GAGCTGGCGG: 1.05 ± 0.038; for GTTTTATGAG: 0.959 ± 0.014; for CGTGTGGGGA: 1.02 ± 0.045.
Regarding TGATGTGCA, the switch fluorescence ratio is 1.01 ± 0.17.
For TTTGACAGTA, the switch fluorescence ratio stood at 1.07 ± 0.061.
Take TTCTTGCGCC: the switch fluorescence ratio is 1.076 ± 0.0073.
For the sequence GTAGTGAGCT, the switch fluorescence ratio was determined as 0.999 ± 0.05.
Take TCTAAGAGTC: the switch fluorescence ratio came out at 0.975 ± 0.039.
For the sequence AGTTTTTCCA, the switch fluorescence ratio was 1.02 ± 0.031.
The same measure for CTTGGCTCTT: 0.985 ± 0.01; for CGGGTATGCT: 0.959 ± 0.025.
Turning to CGATGAGTTT, the switch fluorescence ratio is 1.01 ± 0.033.
As to TTTAGAATGT, the switch fluorescence ratio is 0.994 ± 0.019.
The same measure for GTTGAATGGG: 0.977 ± 0.011; for TGTGGGATAC: 1.2 ± 0.015; for TTGTTTTCTG: 1.02 ± 0.047.
On to ATTATTACGG, for which the switch fluorescence ratio was determined as 1 ± 0.022.
As to TTTTCGGGGT, the switch fluorescence ratio came out at 0.986 ± 0.025.
GCCTCCCGGG: the switch fluorescence ratio was determined as 1.136 ± 0.0053.
Regarding GGGGCTGCGG, the switch fluorescence ratio came out at 0.973 ± 0.052.
The figure for TTGGGTAGGC is 0.985 ± 0.022; for ATGGCCGATA it is 0.9537 ± 0.0027; for GTGTCCTTGG it is 1.006 ± 0.0084.
The figure for TATAAAGAGC is 1.08 ± 0.081; for GATAATAGGT it is 0.993 ± 0.016; for AGAGTAGAGG it is 1.01 ± 0.028.
The same measure for GTTGTTGCTA: 0.99 ± 0.034; for GTTGGGGGCA: 0.968 ± 0.049; for TTCCAGCTTT: 1.02 ± 0.024.
For ATGTTTTGAA, the switch fluorescence ratio was 0.9789 ± 0.005.
Regarding GGGTGTAAAA, the switch fluorescence ratio amounted to 1 ± 0.022.
For the sequence CCATTAAAAG, the switch fluorescence ratio is 1 ± 0.052.
The figure for GACCTATATT is 1.05 ± 0.022; for GGGACGGGGT it is 0.963 ± 0.063.
As for AGGAAACGGG, the switch fluorescence ratio is 0.978 ± 0.018.
In the case of GGTACTA, the switch fluorescence ratio turned out to be 1.02 ± 0.0021.
On to GCAACCGGTC, for which the switch fluorescence ratio worked out at 1.054 ± 0.0041.
Regarding TATCAGAGGA, the switch fluorescence ratio came to 1.04 ± 0.013.
For GATACATTGC, the switch fluorescence ratio was 1.07 ± 0.029.
The same measure for TTTAGGGTTA: 1.01 ± 0.016; for TTATTTTTGA: 1.07 ± 0.096; for GGGGGGTATG: 0.982 ± 0.022.
For the sequence GACAGGGTCC, the switch fluorescence ratio is 1.04 ± 0.052.
The figure for CGTAATTTCA is 1.02 ± 0.013; for CTCTCAAGGG it is 1.088 ± 0.0077; for ATCATGTGTT it is 0.994 ± 0.022.
Consider TTTTTTTAGC, for which the switch fluorescence ratio is 1.03 ± 0.064.
For the sequence TTGGTTCGC, the switch fluorescence ratio was found to be 0.994 ± 0.094.
In the case of TCGGTGTTTC, the switch fluorescence ratio came out at 0.962 ± 0.017.
The figure for GGAGACGGGG is 0.989 ± 0.011; for AAATGGGAGG it is 0.996 ± 0.032.
As to GGTATTCAGG, the switch fluorescence ratio turned out to be 1.03 ± 0.018.
In the case of TTTGAGATGT, the switch fluorescence ratio stood at 1.04 ± 0.0048.
The figure for CGAGGGGGTA is 1.02 ± 0.077.
Take GTAATGGGCA: the switch fluorescence ratio turned out to be 1.03 ± 0.054.
The same measure for TCGGTGGGGG: 1.01 ± 0.051.
With GATAACGTTT, the switch fluorescence ratio was determined as 0.99 ± 0.017.
For GAGAATGTGT, the switch fluorescence ratio worked out at 0.994 ± 0.012.
Turning to AATACGTAGT, the switch fluorescence ratio was determined as 1.04 ± 0.078.
With TATATACGGG, the switch fluorescence ratio turned out to be 1.05 ± 0.032.
Turning to TACAAATTGA, the switch fluorescence ratio was 1.02 ± 0.021.
The figure for TGGCTTACAG is 1.003 ± 0.0022; for GGGCGACTGT it is 0.978 ± 0.023; for TATTGGAGGG it is 0.974 ± 0.019.
